Data as given in US20250163117A1 (CURE GENETICS, published 2025).

What was measured:
Test in all cases: cell-based or functional assay
[1] = biological target: T1, mouse intermediate-affinity IL-2 receptor IL-2Rβγ on cells (mouse, UniProt P16297 27-539; P34902 23-369)
T1 sequence (looked up) 1: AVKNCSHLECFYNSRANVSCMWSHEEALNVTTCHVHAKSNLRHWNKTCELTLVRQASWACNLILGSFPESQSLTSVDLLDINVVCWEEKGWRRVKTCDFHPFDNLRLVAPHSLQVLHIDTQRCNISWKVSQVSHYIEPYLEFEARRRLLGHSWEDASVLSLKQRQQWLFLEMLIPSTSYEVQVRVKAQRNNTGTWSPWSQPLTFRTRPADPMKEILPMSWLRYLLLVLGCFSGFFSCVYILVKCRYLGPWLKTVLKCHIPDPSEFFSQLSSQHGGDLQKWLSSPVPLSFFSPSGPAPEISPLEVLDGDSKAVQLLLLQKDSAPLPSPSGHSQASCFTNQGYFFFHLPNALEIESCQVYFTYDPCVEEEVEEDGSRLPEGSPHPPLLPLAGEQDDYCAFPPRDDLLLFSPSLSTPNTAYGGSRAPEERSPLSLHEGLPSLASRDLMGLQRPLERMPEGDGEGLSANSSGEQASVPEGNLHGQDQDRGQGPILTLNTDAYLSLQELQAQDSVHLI
T1 sequence (looked up) 2: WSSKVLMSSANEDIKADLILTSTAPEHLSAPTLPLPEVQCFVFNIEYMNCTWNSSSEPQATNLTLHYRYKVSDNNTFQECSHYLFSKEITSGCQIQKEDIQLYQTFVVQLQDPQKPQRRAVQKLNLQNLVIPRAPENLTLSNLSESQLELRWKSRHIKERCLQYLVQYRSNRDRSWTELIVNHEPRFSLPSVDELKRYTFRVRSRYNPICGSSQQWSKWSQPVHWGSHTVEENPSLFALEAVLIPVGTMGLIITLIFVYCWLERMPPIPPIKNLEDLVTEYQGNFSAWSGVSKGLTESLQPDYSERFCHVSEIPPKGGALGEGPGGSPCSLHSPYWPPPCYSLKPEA

[2] = biological target: T2, mouse high-affinity IL-2 receptor IL-2Rαβγ on cells (mouse, UniProt P01590 22-268; P16297 27-539; P34902 23-369)
T2 sequence (looked up) 1: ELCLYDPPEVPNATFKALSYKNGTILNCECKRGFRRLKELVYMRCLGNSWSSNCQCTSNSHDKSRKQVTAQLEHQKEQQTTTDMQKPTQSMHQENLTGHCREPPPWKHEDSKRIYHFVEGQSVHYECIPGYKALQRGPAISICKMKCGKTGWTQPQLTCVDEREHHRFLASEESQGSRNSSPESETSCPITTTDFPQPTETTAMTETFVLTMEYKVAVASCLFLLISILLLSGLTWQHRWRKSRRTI
T2 sequence (looked up) 2: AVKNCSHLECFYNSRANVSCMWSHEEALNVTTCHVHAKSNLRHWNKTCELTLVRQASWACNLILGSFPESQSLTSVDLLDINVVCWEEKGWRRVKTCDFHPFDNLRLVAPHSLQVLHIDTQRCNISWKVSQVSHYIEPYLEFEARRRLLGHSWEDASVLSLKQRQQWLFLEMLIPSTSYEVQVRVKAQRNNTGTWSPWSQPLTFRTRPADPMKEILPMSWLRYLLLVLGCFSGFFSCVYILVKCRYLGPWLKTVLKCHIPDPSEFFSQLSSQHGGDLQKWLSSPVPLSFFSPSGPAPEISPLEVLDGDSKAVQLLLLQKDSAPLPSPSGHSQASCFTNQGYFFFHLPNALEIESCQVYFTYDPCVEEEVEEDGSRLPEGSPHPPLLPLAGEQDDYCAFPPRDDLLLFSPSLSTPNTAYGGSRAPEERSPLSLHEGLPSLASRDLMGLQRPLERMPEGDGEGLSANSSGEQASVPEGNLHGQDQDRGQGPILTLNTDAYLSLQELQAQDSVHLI
T2 sequence (looked up) 3: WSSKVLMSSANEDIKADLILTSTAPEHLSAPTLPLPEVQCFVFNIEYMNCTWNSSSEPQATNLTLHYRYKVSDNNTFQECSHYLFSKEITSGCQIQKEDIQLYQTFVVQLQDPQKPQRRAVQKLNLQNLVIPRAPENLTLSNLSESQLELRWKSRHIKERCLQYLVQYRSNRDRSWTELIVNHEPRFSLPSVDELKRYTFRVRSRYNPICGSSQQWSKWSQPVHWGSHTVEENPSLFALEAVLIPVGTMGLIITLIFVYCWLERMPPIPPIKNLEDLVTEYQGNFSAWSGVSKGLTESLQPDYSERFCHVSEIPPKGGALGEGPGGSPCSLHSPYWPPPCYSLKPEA

[3] = biological target: T3, human high-affinity IL-2 receptor IL-2Rαβγ on cells (human, UniProt P01589 22-272; P14784 27-551; P31785 23-369)
T3 sequence (looked up) 1: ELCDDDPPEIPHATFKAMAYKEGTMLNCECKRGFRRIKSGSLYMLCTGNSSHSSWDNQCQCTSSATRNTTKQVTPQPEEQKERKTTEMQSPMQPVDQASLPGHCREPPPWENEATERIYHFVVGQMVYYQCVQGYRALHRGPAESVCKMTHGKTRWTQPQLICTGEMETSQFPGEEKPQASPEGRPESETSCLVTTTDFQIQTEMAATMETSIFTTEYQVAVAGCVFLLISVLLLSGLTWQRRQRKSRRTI
T3 sequence (looked up) 2: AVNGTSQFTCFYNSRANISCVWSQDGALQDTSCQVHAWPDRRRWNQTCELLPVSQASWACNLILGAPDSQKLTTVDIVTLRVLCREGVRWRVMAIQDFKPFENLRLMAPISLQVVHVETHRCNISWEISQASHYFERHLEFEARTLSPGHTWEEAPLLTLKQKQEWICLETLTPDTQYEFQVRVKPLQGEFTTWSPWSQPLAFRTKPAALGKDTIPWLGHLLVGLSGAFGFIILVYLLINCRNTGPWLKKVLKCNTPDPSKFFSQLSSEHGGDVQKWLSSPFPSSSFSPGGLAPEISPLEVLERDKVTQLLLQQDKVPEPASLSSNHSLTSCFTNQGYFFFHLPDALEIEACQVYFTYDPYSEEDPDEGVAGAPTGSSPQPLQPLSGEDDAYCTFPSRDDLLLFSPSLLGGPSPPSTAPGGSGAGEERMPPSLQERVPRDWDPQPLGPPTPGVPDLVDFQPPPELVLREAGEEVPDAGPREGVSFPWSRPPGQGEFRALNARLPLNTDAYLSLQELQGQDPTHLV
T3 sequence (looked up) 3: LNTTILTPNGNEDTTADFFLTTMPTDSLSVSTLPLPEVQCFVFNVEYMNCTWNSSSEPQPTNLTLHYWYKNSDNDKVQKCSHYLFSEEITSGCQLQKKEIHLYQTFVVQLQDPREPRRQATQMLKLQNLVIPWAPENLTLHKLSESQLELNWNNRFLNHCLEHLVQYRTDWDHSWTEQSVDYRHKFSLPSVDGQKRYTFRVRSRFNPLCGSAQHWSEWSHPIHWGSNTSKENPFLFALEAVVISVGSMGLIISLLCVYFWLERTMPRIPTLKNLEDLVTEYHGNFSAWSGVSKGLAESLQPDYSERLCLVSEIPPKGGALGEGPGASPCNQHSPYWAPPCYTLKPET

[4] = biological target: T1, mouse intermediate-affinity IL-2 …; remark: listed apart in the source
[5] = biological target: T4, human intermediate-affinity IL-2 receptor IL-2Rβγ on cells (human, UniProt P14784 27-551; P31785 23-369)
T4 sequence (looked up) 1: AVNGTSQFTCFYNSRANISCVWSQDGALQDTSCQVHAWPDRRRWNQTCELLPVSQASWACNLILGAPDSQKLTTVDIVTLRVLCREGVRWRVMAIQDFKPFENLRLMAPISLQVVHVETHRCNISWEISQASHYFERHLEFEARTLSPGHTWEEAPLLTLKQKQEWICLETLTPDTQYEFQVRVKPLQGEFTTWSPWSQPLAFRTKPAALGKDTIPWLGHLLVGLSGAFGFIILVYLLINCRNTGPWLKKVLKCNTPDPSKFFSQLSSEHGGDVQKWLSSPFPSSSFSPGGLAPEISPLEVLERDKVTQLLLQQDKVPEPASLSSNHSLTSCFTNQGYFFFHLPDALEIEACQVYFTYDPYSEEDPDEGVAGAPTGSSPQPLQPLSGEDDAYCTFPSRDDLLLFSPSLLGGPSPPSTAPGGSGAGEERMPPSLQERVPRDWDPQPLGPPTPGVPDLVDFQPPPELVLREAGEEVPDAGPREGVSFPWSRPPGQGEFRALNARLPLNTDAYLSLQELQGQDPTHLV
T4 sequence (looked up) 2: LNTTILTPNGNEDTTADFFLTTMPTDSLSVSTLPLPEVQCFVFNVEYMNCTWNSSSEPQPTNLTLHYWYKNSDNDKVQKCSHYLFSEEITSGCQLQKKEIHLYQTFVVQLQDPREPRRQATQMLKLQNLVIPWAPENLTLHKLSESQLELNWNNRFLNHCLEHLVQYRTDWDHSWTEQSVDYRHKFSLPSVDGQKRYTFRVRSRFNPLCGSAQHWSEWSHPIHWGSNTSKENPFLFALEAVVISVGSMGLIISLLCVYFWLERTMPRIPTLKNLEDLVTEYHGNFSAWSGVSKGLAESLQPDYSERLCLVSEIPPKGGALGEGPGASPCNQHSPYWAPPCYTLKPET

[6] = biological target: T2, mouse high-affinity IL-2 receptor …; remark: listed apart in the source
[7] = biological target: T3, human high-affinity IL-2 receptor …; remark: listed apart in the source
[8] = biological target: T4, human intermediate-affinity IL-2 …; remark: listed apart in the source

B1: CP-trIL-2 012 (ligand)
chain: PTSSSTKKTQLQLEHLLLDLQMILNGINNYKNPLRPRDLISNINVIVLELKGSETTELKHLQSLEEELKDLEEVLNLAQSKNFHTIVEFLNRWITFSQSIISTLT
notes: H1-H3-H2-H4; loops 1 and 2 removed; de-Ala1, C58S, C125S, P65D
% pSTAT5 in mouse splenocytes at High IL-2v concentration (25 nM per paragraph 254); western blot, pSTAT5/STAT5 normalised to 001 High [1]: 126% | % pSTAT5 in mouse splenocytes at Low IL-2v concentration (2.5 nM per paragraph 254); western blot, pSTAT5/STAT5 normalised to 001 High [2]: 22.8% | EC50 of STAT5 activation, human Tregs (flow cytometry) [3]: 7.91 nM | EC50 of STAT5 activation, mouse CD8 T cells (flow cytometry) [4]: 91.8 nM | EC50 of STAT5 activation, mouse NK cells (flow cytometry) [4]: 84 nM | EC50 of STAT5 activation, human CD8 T cells (flow cytometry) [5]: 18.6 nM | EC50 of STAT5 activation, human NK cells (flow cytometry) [5]: 5.11 nM | EC50 of STAT5 activation, mouse Tregs (flow cytometry) [6]: 52 nM | % pSTAT5 in human PBMC at Low IL-2v concentration (2.5 nM per paragraph 254); western blot, pSTAT5/STAT5 normalised to 001 High [7]: 10.9% | % pSTAT5 in human PBMC at High IL-2v concentration (25 nM per paragraph 254); western blot, pSTAT5/STAT5 normalised to 001 High [8]: 66.9%
